Measurements taken from paper PMC5339707, “ACCORD: an assessment tool to determine the orientation of homodimeric coiled-coils” (Scientific Reports, 2017).
Where “and” joins values, the source holds several entries; their conditions need not be identical. Equal values may be shown once. Read-outs that look alike come from different tables or passages of the source.

Key:
[1] = biological target: His6-SspB-Mfn1 (660-735) fusion protein (E. coli | M. musculus) (UniProt P0AFZ3); assay: SEC-MALS; self-association of His6-SspB-CCD fusion proteins (ACCORD); Superdex 200 10/300 GL, 50 mM Tris pH 8.0, 0.5 mM TCEP, 200 mM NaCl; sample 3-5 mg/ml, 0.5 ml
[2] = biological target: His6-SspB-TPM1 (1-98) fusion protein (E. coli | G. gallus) (UniProt P0AFZ3); assay: as above
[3] = biological target: the molecule itself; assay: as above
[4] = biological target: the molecule itself; assay: crystal structure; MBP-MDV1 fusion protein, hanging drop, 295 K, 100 mM sodium acetate pH 4.5, 25% PEG 3350, 100 mM CaCl2, 1.3-1.7 M sodium formate; molecular replacement
[5] = biological target: the molecule itself; assay: SAXS; MBP fusion proteins in 50 mM Tris pH 8.0, 0.5 mM TCEP, 100 mM NaCl; MBP-NDP52 2.6 mg/ml, MBP-MDV1 9.8 mg/ml; ab initio molecular envelope
[6] = biological target: the molecule itself; assay: SEC-MALS; self-association of His6-SspB-CCD fusion proteins (ACCORD); Superdex 200 10/300 GL, 50 mM Tris pH 8.0, 0.5 mM TCEP, 200 mM NaCl; sample 3-5 mg/ml, 0.5 ml; remark: listed apart in the source

For “His6-SspB-Mfn1 (660-735) fusion protein (from UniProt P0AFZ3 1-165; Q811U4 660-735)”, the stoichiometry N [1] was 4.

With “His6-SspB-TPM1 (1-98) fusion protein (from UniProt P0AFZ3 1-165; P04268 1-98)” the stoichiometry N [2] was 2.

B1: His6-SspB-SCOC (78-159) fusion protein (other, E. coli | H. sapiens, UniProt P0AFZ3 1-165, looked up)
chain: MDLSQLTPRRPYLLRAFYEWLLDNQLTPHLVVDVTLPGVQVPMEYARDGQIVLNIAPRAVGNLELANDEVRFNARFGGIPRQVSVPLAAVLAIYARENGAGTMFEPEAAYDEDTSIMNDEEASADNETVMSVIDGDKPDHDDDTHPDDEPPQPPRGGRPALRVVKMMNADMDAVDAENQVELEEKTRLINQVLELQHTLEDLSARVDAVKEENLKLKSENQVLGQYIENLMSASSVFQTTDTKSKRK
notes: Stringent starvation protein B (SspB), E. coli, full length, residues 1-165 (M1-K165), amplified from genomic DNA; Short coiled-coil protein (SCOC), human, coiled-coil domain, residues 78-159 (M78-K159); CCD ligated behind SspB in the His6-SspB vector (BamHI at the 5' end); vector holds TEV and thrombin cleavage sites; source: E. coli BL21(DE3), purified (HisTrap, Superdex 200); not shown: His6, …
B1 was tested, and the “stoichiometry N” value [3] was 2.

B2: MBP-MDV1 (231-300) fusion protein (domain or fragment, S. cerevisiae, UniProt P47025 231-300, looked up)
chain: QTLVNSLEFLNIQKNSTLSEIRDIEVEVENLRQKKEKLLGKIANIEQNQLLLEDNLKQIDDRLDFLEEYG
notes: Mitochondrial division protein 1 (MDV1), S. cerevisiae, coiled-coil domain, residues 231-300; Modified pMAL vector; the whole chain is in PDB 5JST; source: E. coli BL21(DE3), purified (amylose resin, Q-FF, Superdex 200)
B2: binds [4].

B3: His6-SspB-Atg16 (58-130) fusion protein (other, E. coli | S. cerevisiae, UniProt P0AFZ3 1-165, looked up)
chain: MDLSQLTPRRPYLLRAFYEWLLDNQLTPHLVVDVTLPGVQVPMEYARDGQIVLNIAPRAVGNLELANDEVRFNARFGGIPRQVSVPLAAVLAIYARENGAGTMFEPEAAYDEDTSIMNDEEASADNETVMSVIDGDKPDHDDDTHPDDEPPQPPRGGRPALRVVKVSHDDALLNTLAILQKELKSKEQEIRRLKEVIALKNKNTERLNDELISGTIENNVLQQKLSDLKKEHSQLVAR
notes: Stringent starvation protein B (SspB), E. coli, full length, residues 1-165 (M1-K165), amplified from genomic DNA; Autophagy protein 16 (Atg16), S. cerevisiae, coiled-coil domain, residues 58-130 (V58-R130); source: E. coli BL21(DE3), purified (HisTrap, Superdex 200); not shown: His6, N-terminal, kept
For B3, the “stoichiometry N” value [3] was 2.

B4: His6-SspB-APC (2-55) fusion protein (other, E. coli | H. sapiens, UniProt P0AFZ3 1-165, looked up)
chain: MDLSQLTPRRPYLLRAFYEWLLDNQLTPHLVVDVTLPGVQVPMEYARDGQIVLNIAPRAVGNLELANDEVRFNARFGGIPRQVSVPLAAVLAIYARENGAGTMFEPEAAYDEDTSIMNDEEASADNETVMSVIDGDKPDHDDDTHPDDEPPQPPRGGRPALRVVKAAASYDQLLKQVEALKMENSNLRQELEDNSNHLTKLETEASNMKEVLKQLQGSI
notes: Stringent starvation protein B (SspB), E. coli, full length, residues 1-165 (M1-K165), amplified from genomic DNA; Adenomatous polyposis coli protein (APC), human, coiled-coil domain, residues 2-55 (A2-I55); CCD ligated behind SspB in the His6-SspB vector (BamHI at the 5' end); vector holds TEV and thrombin cleavage sites; source: E. coli BL21(DE3), purified (HisTrap, Superdex 200); not shown: …
With B4 the “stoichiometry N” value [3] was 2.

B5: His6-SspB-ROCK1 (535-709) fusion protein (other, E. coli | H. sapiens, UniProt P0AFZ3 1-165, looked up)
chain: MDLSQLTPRRPYLLRAFYEWLLDNQLTPHLVVDVTLPGVQVPMEYARDGQIVLNIAPRAVGNLELANDEVRFNARFGGIPRQVSVPLAAVLAIYARENGAGTMFEPEAAYDEDTSIMNDEEASADNETVMSVIDGDKPDHDDDTHPDDEPPQPPRGGRPALRVVKLANEKLSQLQKQLEEANDLLRTESDTAVRLRKSHTEMSKSISQLESLNRELQERNRILENSKSQTDKDYYQLQAILEAERRDRGHDSEMIGDLQARITSLQEEVKHLKHNLEKVEGERKEAQDMLNHSEKEKNNLEIDLNYKLKSLQQRLEQEVNEHKVTKARLTDKHQSIEEAK
notes: Stringent starvation protein B (SspB), E. coli, full length, residues 1-165 (M1-K165), amplified from genomic DNA; Rho-associated coiled-coil containing protein kinase 1 (ROCK1), human, coiled-coil domain, residues 535-709 (L535-K709); CCD ligated behind SspB in the His6-SspB vector (BamHI at the 5' end); vector holds TEV and thrombin cleavage sites; source: E. coli BL21(DE3), purified (HisTrap, …)
In the case of B5, the “stoichiometry N” value [3] is reported as 2.

B6: MBP-NDP52 (197-270) fusion protein (domain or fragment, H. sapiens, UniProt Q13137 197-270, looked up)
chain: KVKEQKDYWETELLQLKEQNQKMSSENEKMGIRVDQLQAQLSTQEKEMEKLVQGDQDKTEQLEQLKKENDHLFL
notes: Modified pMAL vector; source: E. coli BL21(DE3), purified (amylose resin, Q-FF, Superdex 200)
B6: binds [5].

B7: His6-SspB-LRRFIP1 (162-249) fusion protein (other, E. coli | H. sapiens, UniProt P0AFZ3 1-165, looked up)
chain: MDLSQLTPRRPYLLRAFYEWLLDNQLTPHLVVDVTLPGVQVPMEYARDGQIVLNIAPRAVGNLELANDEVRFNARFGGIPRQVSVPLAAVLAIYARENGAGTMFEPEAAYDEDTSIMNDEEASADNETVMSVIDGDKPDHDDDTHPDDEPPQPPRGGRPALRVVKDSLAEVEEKYKKAMVSNAQLDNEKTNFMYQVDTLKDMLLELEEQLAESRRQYEEKNKEFEREKHAHSILQFQFAEVKEALKQREEMLE
notes: Stringent starvation protein B (SspB), E. coli, full length, residues 1-165 (M1-K165), amplified from genomic DNA; CCD ligated behind SspB in the His6-SspB vector (BamHI at the 5' end); vector holds TEV and thrombin cleavage sites; source: E. coli BL21(DE3), purified (HisTrap, Superdex 200); not shown: His6, N-terminal, kept
In the case of B7, the “stoichiometry N” value [3] is reported as 2.

B8: His6-SspB-MDV1 (231-300) fusion protein (other, E. coli | S. cerevisiae, UniProt P0AFZ3 1-165, looked up)
chain: MDLSQLTPRRPYLLRAFYEWLLDNQLTPHLVVDVTLPGVQVPMEYARDGQIVLNIAPRAVGNLELANDEVRFNARFGGIPRQVSVPLAAVLAIYARENGAGTMFEPEAAYDEDTSIMNDEEASADNETVMSVIDGDKPDHDDDTHPDDEPPQPPRGGRPALRVVKQTLVNSLEFLNIQKNSTLSEIRDIEVEVENLRQKKEKLLGKIANIEQNQLLLEDNLKQIDDRLDFLEEYG
notes: Stringent starvation protein B (SspB), E. coli, full length, residues 1-165 (M1-K165), amplified from genomic DNA; Mitochondrial division protein 1 (MDV1), S. cerevisiae, coiled-coil domain, residues 231-300 (Q231-G300); Seen as a tetramer (main fraction) and a dimer (significant proportion); source: E. coli BL21(DE3), purified (HisTrap, Superdex 200); not shown: His6, N-terminal, kept
In the case of B8, the “stoichiometry N” value [3] is reported as 4 and 2.

B9: His6-SspB-Ndel1 (8-99) fusion protein (other, E. coli | R. norvegicus, UniProt P0AFZ3 1-165, looked up)
chain: MDLSQLTPRRPYLLRAFYEWLLDNQLTPHLVVDVTLPGVQVPMEYARDGQIVLNIAPRAVGNLELANDEVRFNARFGGIPRQVSVPLAAVLAIYARENGAGTMFEPEAAYDEDTSIMNDEEASADNETVMSVIDGDKPDHDDDTHPDDEPPQPPRGGRPALRVVKDFSSLKEETAYWKELSLKYKQSFQEARDELVEFQEGSRELEAELEAQLVQAEQRNRDLQADNQRLKYEVEALKEKLEHQYAQSYKQVSVLED
notes: Stringent starvation protein B (SspB), E. coli, full length, residues 1-165 (M1-K165), amplified from genomic DNA; Major peak a dimer; source: E. coli BL21(DE3), purified (HisTrap, Superdex 200); not shown: His6, N-terminal, kept
In the case of B9, the “stoichiometry N” value [3] is reported as 2.

B10: His6-SspB-TRIM25 (194-356) fusion protein (other, E. coli | H. sapiens, UniProt P0AFZ3 1-165, looked up)
chain: MDLSQLTPRRPYLLRAFYEWLLDNQLTPHLVVDVTLPGVQVPMEYARDGQIVLNIAPRAVGNLELANDEVRFNARFGGIPRQVSVPLAAVLAIYARENGAGTMFEPEAAYDEDTSIMNDEEASADNETVMSVIDGDKPDHDDDTHPDDEPPQPPRGGRPALRVVKASADLEATLRHKLTVMYSQINGASRALDDVRNRQQDVRMTANRKVEQLQQEYTEMKALLDASETTSTRKIKEEEKRVNSKFDTIYQILLKKKSEIQTLKEEIEQSLTKRDEFEFLEKASKLRGISTKPVYIPEVELNHKLIKGIHQSTIDLKNELKQCIGRLQ
notes: Stringent starvation protein B (SspB), E. coli, full length, residues 1-165 (M1-K165), amplified from genomic DNA; source: E. coli BL21(DE3), purified (HisTrap, Superdex 200); not shown: His6, N-terminal, kept
For B10, the “stoichiometry N” value [3] was 4.

B11: His6-SspB-MYO10 (883-933) fusion protein (other, E. coli | human, UniProt P0AFZ3 1-165, looked up)
chain: MDLSQLTPRRPYLLRAFYEWLLDNQLTPHLVVDVTLPGVQVPMEYARDGQIVLNIAPRAVGNLELANDEVRFNARFGGIPRQVSVPLAAVLAIYARENGAGTMFEPEAAYDEDTSIMNDEEASADNETVMSVIDGDKPDHDDDTHPDDEPPQPPRGGRPALRVVKENKQVEEILRLEKEIEDLQRMKEQQELSLTEASLQKLQERRDQELRRLEEE
notes: Stringent starvation protein B (SspB), E. coli, full length, residues 1-165 (M1-K165), amplified from genomic DNA; also called human MYO10 CC; source: E. coli BL21(DE3), purified (HisTrap, Superdex 200)
With B11 the “stoichiometry N” value [6] was 2.

B12: His6-SspB-NDP52 (141-334) fusion protein (other, E. coli | H. sapiens, UniProt P0AFZ3 1-165, looked up)
chain: MDLSQLTPRRPYLLRAFYEWLLDNQLTPHLVVDVTLPGVQVPMEYARDGQIVLNIAPRAVGNLELANDEVRFNARFGGIPRQVSVPLAAVLAIYARENGAGTMFEPEAAYDEDTSIMNDEEASADNETVMSVIDGDKPDHDDDTHPDDEPPQPPRGGRPALRVVKEVEEIEQHNKELCKENQELKDSCISLQKQNSDMQAELQKKQEELETLQSINKKLELKVKEQKDYWETELLQLKEQNQKMSSENEKMGIRVDQLQAQLSTQEKEMEKLVQGDQDKTEQLEQLKKENDHLFLSLTEQRKDQKKLEQTVEQMKQNETTAMKKQQELMDENFDLSKRLSENEIICNALQRQKERLEGE
notes: as for B10
With B12 the “stoichiometry N” value [3] was 2.
